Test results as given in the Immune Epitope Database (IEDB).

Target: HLA-A*02:01
Assay: IEDB peptide-MHC binding, purified MHC/competitive/radioactivity; ≥ and ≤ were set here for values at or beyond the usual limits of such assays
[1] = source organism: Mammarenavirus juninense
[2] = source organism: Vaccinia virus WR
[3] = source organism: Mammarenavirus whitewaterense

Sequence	IC50 [2] [nM]	further results
SLFLHLVGI		IC50 [1]: 1.5 nM
FILGIIITV	0.11	
ATNIFPFFV	17	
VLITWLIDYV	0.8	
ILWFFNAMVL	11	
PLLNIGIVL	1420	
LITWLIDYV	71	
YLYQPCDLL	1.8	
IMFKDDNIIM	141	
SIINRDIIVI	826	
MVNHSTYYV		IC50 (source organism: Mammarenavirus brazilense): 27 nM
YLKIGTLLV	17	
FLKYSRSKPA	3540	
TTTSEVVDML	2520	
RVYEALYYV	1.5	
CMAFTIPSI	0.9	
VLVDNVDFAT	16	
YLMPYSVYI	0.26	
YLDGQLARL	1.3	
TIIALLFAL	12	
YLFNAIETM	1.5	
GMLFVNDLMT	838	

Sequence	IC50 [2] [nM]	further results
NQLYLTVSFI	520	
GVIEYAKSI	4180	
SITKEKIKI	4810	
YVNHTGFNV		IC50 [3]: 478 nM
SLEATYHII	762	
YMDLSYHGV	1.1	
FVCISYYFT	994	
HLMFYTLPI	0.67	
YLLSGSDLFI	0.25	
VMAYVGIKL	1300	
LIMYSVIGV	0.55	
ILSNYVKTLL	7.5	
GLFQFFVFL		IC50 [1]: 495 nM
YLVIYLNRT	819	
VLMEAQQGI	7.1	
YILHSDYQL	13	
RIDKTMKYI	2660	
ILYLYETYHL	9	
NLVKLSSYHV	1420	
YLLFGIKCI	27	
TIATYIDALA	125	
LAALFMYYA	52	

Sequence	IC50 [2] [nM]	further results
FIRYGDASLM	2360	
MLLALVALV	0.42	
NVVSSSTIA	588	
YTQDELINV	7.3	
ILTREMGFLV	7	
RTLDTAIFT	3430	
YMFFVIKNL	21	
TLYDFDYYI	0.18	
TLTNVVNIST	1240	
MMKTYIEFV	4.7	
TINNLKMML	193	
ITNGYLISI	54	
YTIERIFNA	0.56	
AVISKVTYSL	4770	
SLKAFFSWSL		IC50 [1]: 1600 nM
VLAIDFGNGA	1440	
RLNDFLGLL	11	
LLMTSLQYA	2.5	
KTISVVTLL	287	
FTGITLFLL	130	
NIWAIIPLSA	87	
YLPKQPEGV	1.2	

Sequence	IC50 [2] [nM]	further results
RLVDFFPDI	0.14	
LTNEIYASII	4330	
MIITAVNSLI		IC50 [3]: 438 nM
IIDREVVANV	63	
KMAGGIGLSI	9.7	
SQYANCSSI	81	
ILTAILFFM	35	
SVSESNIDL	569	
TVASAQIHL	3130	
HMYFTFFDV	9.1	
LIVLFEVFVV	2070	
KTIIDPDFV	346	
LITMLSIIL	115	
MMIDDFGTA	3.2	
KLVSISNFI	6.3	
FIADIGIGV	0.3	
MLLHVGIPL	1.4	
PLYEVNSTMT	3420	
LVVDNGELM	3600	
GAENIVFNL	4720	
VVTLLCVLPA	262	
YVSSIFLHL		IC50 [3]: 157 nM

Sequence	IC50 [2] [nM]	further results
SLHSLSVET	266	
LMSNIKTMMI	1560	
VVLDATNDGL	1450	
RTCSNWVPL	4.9	
FLICHNLRA	17	
FMIITSTKTI	1480	
SMLIEVILTA	795	
NLPSSENYM	135	
IAISSLNKL	1500	
YVPGYSITT	132	
FTISMRYQSL	4300	
LLSSVDYKNI	908	
YITALNHLVL	280	
DASLMDMITL	206	
GLISGSTFSI	22	
MLIEVILTA	5	
YTYLIGEKI	5000	
SLTNEIYASI	161	
DAIIDIEPDL	2270	
FLYNVYPGA	1.3	
ILLLIGICVA	683	
ELYNKPLYEV	0.79	

Sequence	IC50 [2] [nM]	further results
LLFDRDTFYI	0.4	
FLLRGPFEA		IC50 [3]: 11 nM
LQKFSFKIA	4660	
STIATYIDAL	2780	
KLQAAPYIV	1.2	
NIHSEMYSL	580	
IIFGESSIFV	1.3	
YLSAKITTL	5.5	
FIDSNEYEV	0.98	
FTDASTVASA	793	
IVISPMGKL	896	
VVSVDCNKEL	2430	
YLDFLLLLL	0.43	
KVYDKLFPV	0.34	
FLIVSLCPT	1.5	
LMSTLLIYL	0.13	
MQRIISLSV	454	
VMKLFTISV	8	
FICWHSSEI	53	
YLFTFTIYT	3.3	
FTASLFLHLV		IC50 (source organism: Mammarenavirus machupoense): 75 nM
